Results as given in PMC12406269, “Identification and characterization of nanobodies specific for the human ubiquitin–like ISG15 protein” (The Journal of Biological Chemistry, 2025).

Biological target: T1, human ISG15 (1-157)-SBP-His (human, UniProt P05161 1-157)
T1 construct: human ISG15, residues 1-157, cloned into pET30b; also called hISG15-SBP-His; human ISG15-SBP; source: E. coli BL21 (DE3), purified (Ni-NTA, SEC); not shown: His, C-terminal, kept
Assay: SEC; VHH and ISG15 mixed at the indicated molar ratios (1:2, 1:1 or 1:1:1) at 20 μM in 500 μl TBS, 20 min at room temperature; Superdex 75 10/300, fractions on SDS-PAGE
Settings: both partners purified

T1 sequence (P05161 1-157): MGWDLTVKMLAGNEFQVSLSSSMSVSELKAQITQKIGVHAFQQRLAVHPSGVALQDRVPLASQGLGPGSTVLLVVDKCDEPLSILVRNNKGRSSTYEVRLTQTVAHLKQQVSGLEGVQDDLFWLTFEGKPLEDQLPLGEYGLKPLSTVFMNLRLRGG

B1: VHH_(ISG15-A)-HA-His (VHH)
VHH: QLQLVETGGGLVQAGGSLRLSCAASGRTFAGLSVKWFRQPPGAEREWVAHITSTGSSTHYADSVKGRFTISRDYDRNMVYLQMSSLKPEDTAVYYCHASTLWPEKHQDYWGQGIQVTVSS
notes: VHH domain; also called VHH-A; source: E. coli WK6, periplasm (osmotic shock), purified (Ni-NTA, SEC); not shown: LPETGG sortase motif, C-terminal, kept; HA, C-terminal, kept; His6, C-terminal, kept
B1: binds.
